From patent US20150299265A1 (Molecular Partners, published 2015)

The binders below were run against Human HER2 expressed on tumour cells (human, UniProt P04626 23-1255) (assay: cell-based or functional assay).

| % activity vs. DARPin # 41, BT474 cell proliferation [%] | IC50 [nM], inhibition of BT474 cell proliferation (BrdU) [nM] | Binder |
| --- | --- | --- |
| 100 | 1.77 | DARPin #63 (designed binder, PEGylated at its C-terminal Cys residue) MRGSHHHHHHGSDLGAKLLSDLGVKLLWAAARGQDDEVRILLAAGADVNAKDFQGITPLHIAAQSGHLEIVEVLLKAGADVNAKDVTGDTPLHLAAQHGHLVIVEVLLKAGADVNAQDERGWTPADLAADWGHEDIAEVLQKLGGGGSGGGGSRSDLGKKLLEAARAGQDDEVRILMANGADVNAKDEYGLTPLYLATAHGHLEIVEVLLKNGADVNAVDAIGFTPLHLAAFIGHLEIAEVLLKHGADVNAQDKFGKTAFDISIGNGNEDLAEILQKAAGGGSGGGSC |
| 63 | 4.63 | DARPin #35 (designed binder) MRGSHHHHHHGSDLGIKLLFAAAKGQDDEVRILLAAGADVNAKDFEGYTPLHVAAYDGHLEIVEVLLKAGADVNAKDSQGRTPLHEAAYSGHLEIVEVLLKAGADVNAQDDAGETPADLAAAWGHEDIAEVLQKLGGGGSGGGGSRSDLGIKLLQAANLGQDDEVRILLATGADVNAKDSIGQTPLHWAARRGHLEIVEVLLKAGADVNAKDEYGVTPLHLAASLGHLEIVEVLLKAGADVNAQDESGETPADLAALHGHEDIAEVLQKLN |
| 100 | 2.31 | DARPin #64 (designed binder) MRGSHHHHHHGSDLGKKLLEAARAGQDDEVRILMANGADVNAKDYFSHTPLHLAARNGHLKIVEVLLKAGADVNAKDFAGKTPLHLAANDGHLEIVEVLLKHGADVNAQDIFGKTPADIAADAGHEDIAEVLQKLGGGGSGGGGSGGGGSGGGGSRSDLGAKLLSDLGVKLLWAAARGQDDEVRILLAAGADVNAKDFQGITPLHIAAQSGHLEIVEVLLKAGADVNAKDVTGDTPLHLAAQHGHLVIVEVLLKAGADVNAQDERGWTPADLAADWGHEDIAEVLQKLGGGGSGGGGSRSDLGKKLLEAARAGQDDEVRILMANGADVNAKDEYGLTPLYLATAHGHLEIVEVLLKNGADVNAVDAIGFTPLHLAAFIGHLEIAEVLLKHGADVNAQDKFGKTAFDISIGNGNEDLAEILQKLN |

More lines, now with the values behind:

| Binder | % activity vs. DARPin # 41, BT474 cell proliferation [%] | IC50 [nM], inhibition of BT474 cell proliferation (BrdU) [nM] |
| --- | --- | --- |
| DARPin #65 (designed binder) MRGSHHHHHHGSDLGAKLLSDLGVKLLWAAARGQDDEVRILLAAGADVNAKDFQGITPLHIAAQSGHLEIVEVLLKAGADVNAKDVTGDTPLHLAAQHGHLVIVEVLLKAGADVNAQDERGWTPADLAADWGHEDIAEVLQKLGGGGSGGGGSRSDLGKKLLEAARAGQDDEVRILMANGADVNAKDEYGLTPLYLATAHGHLEIVEVLLKNGADVNAVDAIGFTPLHLAAFIGHLEIAEVLLKHGADVNAQDKFGKTAFDISIGNGNEDLAEILQKLNKLGGGGSGGGGSGGGGSGGGGSRSDLGKKLLEAARAGQDDEVRILMANGADVNAKDYFSHTPLHLAARNGHLKIVEVLLKAGADVNAKDFAGKTPLHLAANDGHLEIVEVLLKHGADVNAQDIFGKTPADIAADAGHEDIAEVLQKLN | 100 | 4.07 |
| DARPin #67 (designed binder) MRGSHHHHHHGSDLGAKLLSDLGVKLLWAAARGQDDEVRILLAAGADVNAKDFQGITPLHIAAQSGHLEIVEVLLKAGADVNAKDVTGDTPLHLAAQHGHLVIVEVLLKAGADVNAQDERGWTPADLAADWGHEDIAEVLQKAAGGGGSDLGKKLLEAARAGQDDEVRILMANGADVNAKDEYGLTPLYLATAHGHLEIVEVLLKNGADVNAVDAIGFTPLHLAAFIGHLEIAEVLLKHGADVNAQDKFGKTAFDISIGNGNEDLAEILQKAA | 100 | 4.87 |
| DARPin #68 (designed binder) MRGSHHHHHHGSDLGAKLLSDLGVKLLWAAARGQDDEVRILLAAGADVNAKDFQGITPLHIAAQSGHLEIVEVLLKAGADVNAKDVTGDTPLHLAAQHGHLVIVEVLLKAGADVNAQDERGWTPADLAADWGHEDIAEVLQKAAGSPTPTPTTPTPTPTTPTPTPTGSDLGKKLLEAARAGQDDEVRILMANGADVNAKDEYGLTPLYLATAHGHLEIVEVLLKNGADVNAVDAIGFTPLHLAAFIGHLEIAEVLLKHGADVNAQDKFGKTAFDISIGNGNEDLAEILQKAA | 100 | 5.35 |
| DARPin #46 (designed binder) MRGSHHHHHHGSDLGKKLLEAARAGQDDEVRILMANGADVNAKDFYGITPLHLAAAYGHLEIVEVLLKHGADVNAHDWNGWTPLHLAAKYGHLEIVEVLLKHGADVNAIDNAGKTPLHLAAAHGHLEIVEVLLKYGADVNAQDKFGKTAFDISIDNGNEDLAEILQKLGGGGSGGGGSRSDLGKKLLEAARAGQDDEVRILMANGADVNATDIHGHTPLHLAAAMGHLEIVEVLLKNGADVNANDWRGFTPLHLAALNGHLEIVEVLLKNGADVNATDTAGNTPLHLAAWFGHLEIVEVLLKNGADVNAQDKFGKTAFDISIDNGNEDLAEILQKLN | 100 | 3.34 |
| DARPin #22 (designed binder) MRGSHHHHHHGSDLGDKLLQSDLGIKLLFAAAKSQDDEVRILLAAGADVNAKDFQSVTPLHIAAQSGHLEIVEVLLKAGADVNAKDVTGDTPLHLAAQHGHLEIVEVLLKAGADVNAQDERGWTPADLAADWGHEDIAEVLQKLGGGGSGGGGSRSDLGIKLLQAANLGQDDEVRILLATGADVNAKDSIGQTPLHWAARRGHLEIVEVLLKAGADVNAKDEYGVTPLHLAASLGHLEIVEVLLKAGADVNAQDESGETPADLAALHGHEDIAEVLQKLN | 60.1 | 4.03 |
| DARPin #27 (designed binder) MRGSHHHHHHGSDLGVKLLWAAARGQDDEVRILLAAGADVNAKDFQGITPLHIAATNGHLEIVEVLLKAGADVNAKDITGETPLHHAADSGHLEIVEVLLKAGADVNAQDKAGVTPADLAAAWGHEDIAEVLQKLGGGGSGGGGSRSDLGIKLLQAANLGQDDEVRILLATGADVNAKDSIGQTPLHWAARRGHLEIVEVLLKAGADVNAKDEYGVTPLHLAASLGHLEIVEVLLKAGADVNAQDESGETPADLAALHGHEDIAEVLQKLN | 37.8 | 4.57 |
| DARPin #66 (designed binder) MRGSHHHHHHGSDLGAKLLSDLGVKLLWAAARGQDDEVRILLAAGADVNAKDFQGITPLHIAAQSGHLEIVEVLLKAGADVNAKDVTGDTPLHLAAQHGHLVIVEVLLKAGADVNAQDERGWTPADLAADWGHEDIAEVLQKAAGSDLGKKLLEAARAGQDDEVRILMANGADVNAKDEYGLTPLYLATAHGHLEIVEVLLKNGADVNAVDAIGFTPLHLAAFIGHLEIAEVLLKHGADVNAQDKFGKTAFDISIGNGNEDLAEILQKAA | 100 | 4.06 |
| DARPin #45 (designed binder) MRGSHHHHHHGSDLGKKLLEAARAGQDDEVRILMANGADVNAKDFYGITPLHLAAAYGHLEIVEVLLKHGADVNAHDWNGWTPLHLAAKYGHLEIVEVLLKHGADVNAIDNAGKTPLHLAAAHGHLEIVEVLLKYGADVNAQDKFGKTAFDISIDNGNEDLAEILQKLGGGGSGGGGSRSDLGKKLLEAARAGQDDEVRILMANGADVNAKDEYGLTPLYLATAHGHLEIVEVLLKNGADVNAVDAIGFTPLHLAAFIGHLEIAEVLLKHGADVNAQDKFGKTAFDISIGNGNEDLAEILQKLN | 100 | 1.55 |
| DARPin #47 (designed binder) MRGSHHHHHHGSDLGDKLLQSDLGIKLLFAAAKSQDDEVRILLAAGADVNAKDFQSVTPLHIAAQSGHLEIVEVLLKAGADVNAKDVTGDTPLHLAAQHGHLEIVEVLLKAGADVNAQDERGWTPADLAADWGHEDIAEVLQKLGGGGSGGGGSRSDLGIKLLVAAAQGQDDEVRILLAAGADVNAKDQQGATPLHLAAWKGHLEIVEVLLKAGADVNAKDLSGDTPLHIAAWFGHLEIVEVLLKAGADVNAQDTEGYTPADLAALYGHEDIAEVLQKLN | 6.8 | – |

These binders were tested against T1, Recombinant human HER2 ectodomain (human, UniProt P04626 23-652, biotinylated on primary amines (for SPR and crude extract ELISA)) (assay: SPR (ProteOn); biotinylated human HER2 on neutravidin chip, monovalent DARPin injected).
T1 construct: extracellular domain; also called ErbB2; ectodomain of human HER2; not shown: Flag tag
Procedure: Protein binding kinetics of interesting purified HER2-binding DARPins were assayed by Surface Plasmon Resonance (SPR) analysis with a ProteOn array system (BioRad) using a setup, where biotinylated human HER2 was immobilized via neutravidin and the interaction was measured by adding free monovalent DARPin. The determination of Kd values was performed according to standard procedures.
SPR was measured using a ProteOn instrument (BioRad) and measurement was performed according standard procedures known to the person skilled in the art. The running buffer was PBS, pH 7.4, containing 0.005% Tween 20®. Neutravidin was covalently immobilized on a GLC chip (BioRad) to a level of about 8000 resonance units (RU). Immobilization of HER2 on the neutravidin coated chip was then performed. […] The signals (i.e. resonance unit (RU) values) of an uncoated reference cell and a reference injection (i.e. injection of running buffer only) were subtracted from the RU traces obtained after injection of […] (double-referencing). From the SRP traces obtained from the on-rate and off-rate measurements the on- and off-rate of the corresponding DARPin HER2 interaction can be determined.
Dissociation constants (Kd) were calculated from the estimated on- and off-rates using standard procedures known to the person skilled in the art.

| Kd [nM] | Binder |
| --- | --- |
| 0.0781 | DARPin #1 (designed binder, monovalent) MRGSHHHHHHGSDLGVKLLWAAARGQDDEVRILLAAGADVNAKDFQGITPLHIAAQSGHLEIVEVLLKAGADVNAKDVTGDTPLHLAAQHGHLVIVEVLLKAGADVNAQDERGWTPADLAADWGHEDIAEVLQKLN |
| 0.0131 | DARPin #3 (designed binder, monovalent) MRGSHHHHHHGSDLGIKLLFAAAKSQDDEVRILLAAGADVNAKDFQSVTPLHIAAQSGHLEIVEVLLKAGADVNAKDVTGDTPLHLAAQHGHLEIVEVLLKAGADVNAQDERGWTPADLAADWGHEDIAEVLQKLN |

Continued, binder first:

| Binder | Kd [nM] |
| --- | --- |
| DARPin #60 (designed binder, monovalent) MRGSHHHHHHGSDLGVKLLWAAARGQDDEVRELLKAGADVNAKDFQGITPLHIAAQSGHLEIVEVLLKAGADVNAKDVTGDTPLHLAAQHGHLEIVEVLLKAGADVNAQDERGWTPADLAADWGHEDIAEVLQKLN | 0.0117 |
| DARPin #2 (designed binder, monovalent) MRGSHHHHHHGSDLGVKLLWAAARGQDDEVRELLKAGADVNAKDFQGITPLHIAATSGHLEIVEVLLKAGADVNAKDITGETPLHHAADSGHLEIVEVLLKAGADVNAQDKAGVTPADLAAAWGHEDIAEVLQKLN | 0.875 |
